Data taken from patent US20250076311A1 (Chugai, published 2025).
One block for each binder: values may come before it.

What was measured:
[1] = molecular target: T1, cynomolgus monkey FcγRIIa1 extracellular domain with C-terminal His-tag (cynomolgus monkey); assay: SPR (BIACORE); KD of SG1 / KD of variant
T1 construct: also called cyno FcgRIIa1; cynoFcγRIIa1; not shown: His-tag added to the C-terminus
T1 chain: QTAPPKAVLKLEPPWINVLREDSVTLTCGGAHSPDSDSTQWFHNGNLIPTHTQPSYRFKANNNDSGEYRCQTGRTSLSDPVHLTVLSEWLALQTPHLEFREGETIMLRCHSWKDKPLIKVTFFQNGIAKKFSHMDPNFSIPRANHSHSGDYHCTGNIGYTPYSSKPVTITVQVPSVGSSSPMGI

[2] = molecular target: T2, cynomolgus monkey FcγRIIa2 extracellular domain with C-terminal His-tag (cynomolgus monkey); assay: SPR (BIACORE); KD of SG1 / KD of variant
T2 construct: also called cyno FcgRIIa2; cynoFcγRIIa2; not shown: His-tag added to the C-terminus
T2 chain: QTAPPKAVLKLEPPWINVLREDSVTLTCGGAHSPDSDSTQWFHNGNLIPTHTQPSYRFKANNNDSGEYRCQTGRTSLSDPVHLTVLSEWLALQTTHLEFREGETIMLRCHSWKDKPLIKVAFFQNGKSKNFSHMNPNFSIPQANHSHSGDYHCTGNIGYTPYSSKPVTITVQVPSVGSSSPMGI

[3] = molecular target: T3, cynomolgus monkey FcγRIIa3 extracellular domain with C-terminal His-tag (cynomolgus monkey); assay: SPR (BIACORE); KD of SG1 / KD of variant
T3 construct: also called cyno FcgRIIa3; cynoFcγRIIa3; not shown: His-tag added to the C-terminus
T3 chain: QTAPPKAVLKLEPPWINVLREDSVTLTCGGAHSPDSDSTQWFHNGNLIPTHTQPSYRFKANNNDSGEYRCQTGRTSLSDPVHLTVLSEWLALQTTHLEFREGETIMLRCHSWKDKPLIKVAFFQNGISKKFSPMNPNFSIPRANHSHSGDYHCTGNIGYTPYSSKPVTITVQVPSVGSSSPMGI

[4] = molecular target: T4, cynomolgus monkey FcγRIIb extracellular domain with C-terminal His-tag (cynomolgus monkey); assay: SPR (BIACORE); KD of SG1 / KD of variant
T4 construct: also called cyno FcgRIIb; cynoFcγRIIb; not shown: His-tag added to the C-terminus
T4 chain: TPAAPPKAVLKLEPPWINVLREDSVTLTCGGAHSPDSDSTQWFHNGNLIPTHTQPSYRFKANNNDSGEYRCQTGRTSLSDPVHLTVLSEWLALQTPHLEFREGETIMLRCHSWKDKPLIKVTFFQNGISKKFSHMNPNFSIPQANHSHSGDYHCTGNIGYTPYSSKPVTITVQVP

[5] = molecular target: T5, cynomolgus monkey FcγRIIIaS extracellular domain with C-terminal His-tag (cynomolgus monkey, UniProt A3RFZ7 21-206 (rhesus entry)); assay: SPR (BIACORE); KD of SG1 / KD of variant
T5 construct: also called cyno FcgRIIIaS; cynoFcγRIIIaS; not shown: His-tag added to the C-terminus
T5 sequence (A3RFZ7 21-206): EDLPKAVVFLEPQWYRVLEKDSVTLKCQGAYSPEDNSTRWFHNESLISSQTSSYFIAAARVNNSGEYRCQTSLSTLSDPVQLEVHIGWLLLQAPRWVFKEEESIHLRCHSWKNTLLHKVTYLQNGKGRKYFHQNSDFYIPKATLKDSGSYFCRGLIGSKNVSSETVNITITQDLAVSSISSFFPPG

[6] = molecular target: T6, human FcγRIIaH extracellular domain with C-terminal His-tag (human, UniProt P12318 34-217); assay: SPR (BIACORE); KD of SG1 / KD of variant
T6 construct: also called human FcgRIIaH; FcγRIIa type H; not shown: His-tag added to the C-terminus
T6 sequence: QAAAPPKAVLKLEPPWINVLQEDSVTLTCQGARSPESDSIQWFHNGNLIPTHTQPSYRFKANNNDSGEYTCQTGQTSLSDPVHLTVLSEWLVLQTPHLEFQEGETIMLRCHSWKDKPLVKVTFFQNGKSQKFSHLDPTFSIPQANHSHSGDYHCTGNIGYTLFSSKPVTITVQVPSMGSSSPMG

[7] = molecular target: T7, human FcγRIIaR extracellular domain with C-terminal His-tag (human, UniProt P12318 34-217); assay: SPR (BIACORE); KD of SG1 / KD of variant
T7 construct: also called human FcgRIIaR; FcγRIIa type R; not shown: His-tag added to the C-terminus
T7 chain: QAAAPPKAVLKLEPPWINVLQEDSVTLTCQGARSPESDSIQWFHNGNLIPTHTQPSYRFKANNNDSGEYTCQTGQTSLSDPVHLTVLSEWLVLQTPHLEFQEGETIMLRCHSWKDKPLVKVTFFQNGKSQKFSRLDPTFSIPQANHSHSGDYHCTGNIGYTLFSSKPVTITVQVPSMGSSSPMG

[8] = molecular target: T8, human FcγRIIb extracellular domain with C-terminal His-tag (human, UniProt P31994 43-217); assay: SPR (BIACORE); KD of SG1 / KD of variant
T8 construct: also called human FcgRIIb; not shown: His-tag added to the C-terminus
T8 sequence: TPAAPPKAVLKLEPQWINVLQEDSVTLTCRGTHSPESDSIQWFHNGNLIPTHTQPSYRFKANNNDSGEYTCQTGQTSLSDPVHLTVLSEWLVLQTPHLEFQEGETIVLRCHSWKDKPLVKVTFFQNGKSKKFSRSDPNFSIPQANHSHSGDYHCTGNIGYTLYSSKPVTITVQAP

[9] = molecular target: T9, human FcγRIIIaV extracellular domain with C-terminal His-tag (human, UniProt P08637 17-208); assay: SPR (BIACORE); KD of SG1 / KD of variant
T9 construct: also called human FcgRIIIaV; not shown: His-tag added to the C-terminus
T9 sequence (P08637 17-208 F176V): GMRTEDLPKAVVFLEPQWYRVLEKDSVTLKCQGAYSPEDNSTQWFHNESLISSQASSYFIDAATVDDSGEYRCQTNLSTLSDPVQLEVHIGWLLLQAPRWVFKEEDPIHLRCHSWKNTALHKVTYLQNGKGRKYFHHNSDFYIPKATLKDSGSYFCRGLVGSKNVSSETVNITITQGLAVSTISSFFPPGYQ

[10] = molecular target: T1, cynomolgus monkey FcγRIIa1 …; assay: SPR (BIACORE), antibody captured, FcgR analyte
[11] = molecular target: T2, cynomolgus monkey FcγRIIa2 …; assay: SPR (BIACORE), antibody captured, FcgR analyte
[12] = molecular target: T3, cynomolgus monkey FcγRIIa3 …; assay: SPR (BIACORE), antibody captured, FcgR analyte
[13] = molecular target: T4, cynomolgus monkey FcγRIIb extracellular …; assay: SPR (BIACORE), antibody captured, FcgR analyte
[14] = molecular target: T5, cynomolgus monkey FcγRIIIaS …; assay: SPR (BIACORE), antibody captured, FcgR analyte
[15] = molecular target: T6, human FcγRIIaH extracellular domain …; assay: SPR (BIACORE), antibody captured, FcgR analyte
[16] = molecular target: T7, human FcγRIIaR extracellular domain …; assay: SPR (BIACORE), antibody captured, FcgR analyte
[17] = molecular target: T8, human FcγRIIb extracellular domain with …; assay: SPR (BIACORE), antibody captured, FcgR analyte
[18] = molecular target: T9, human FcγRIIIaV extracellular domain …; assay: SPR (BIACORE), antibody captured, FcgR analyte
[19] = molecular target: T10, cynomolgus monkey FcγRIIa2 extracellular domain, His-tagged (cynomolgus monkey); assay: SPR (BIACORE); KD of SG1 divided by KD of the variant
T10 construct: also called cyno FcgRIIa2; cynoFcγRIIa2; not shown: His-tag added to the C-terminus
T10 chain: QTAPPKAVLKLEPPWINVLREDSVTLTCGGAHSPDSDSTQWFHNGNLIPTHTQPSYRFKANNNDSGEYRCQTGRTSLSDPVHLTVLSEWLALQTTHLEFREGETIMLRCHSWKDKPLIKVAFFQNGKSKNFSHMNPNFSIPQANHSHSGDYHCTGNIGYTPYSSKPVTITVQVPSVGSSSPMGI
Description: (§1) The kinetic analysis of interactions between these antibodies and FcγR was carried out using BIACORE® T200 or BIACORE® 4000 (GE Healthcare). HBS-EP+ (GE Healthcare) was used as the running buffer, and the measurement temperature was set to 25° C. […] After the measurement, the antibody captured on the chip was washed off by allowing reaction with 10 mM glycine-HCl, pH1.5 and 25 mM NaOH so that the chip was regenerated and used repeatedly. The sensorgrams obtained as measurement results were analyzed by the 1:1 Langmuir binding model using the BIACORE® Evaluation Software to calculate the binding rate constant ka (L/mol/s) and dissociation rate constant kd (1/s), and the dissociation constant KD (mol/L) was calculated from these values. […] Regarding such interactions, KD values were calculated using the following 1:1 binding model described in BIACORE® T100 Software Handbook BR1006-48 Edition AE.

[20] = molecular target: T11, cynomolgus monkey FcγRIIa3 extracellular domain, His-tagged (cynomolgus monkey); assay: as above
T11 construct: also called cyno FcgRIIa3; cynoFcγRIIa3; not shown: His-tag added to the C-terminus
T11 chain: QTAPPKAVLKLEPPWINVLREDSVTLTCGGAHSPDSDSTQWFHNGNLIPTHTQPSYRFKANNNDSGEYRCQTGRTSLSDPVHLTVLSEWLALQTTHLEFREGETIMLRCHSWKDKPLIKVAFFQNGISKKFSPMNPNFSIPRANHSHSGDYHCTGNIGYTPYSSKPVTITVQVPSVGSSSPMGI
Description: as §1

[21] = molecular target: T12, cynomolgus monkey FcγRIIIaS extracellular domain, His-tagged (cynomolgus monkey, UniProt A3RFZ7 21-206 (rhesus entry)); assay: as above
T12 construct: also called cyno FcgRIIIaS; cynoFcγRIIIaS; not shown: His-tag added to the C-terminus
T12 sequence (A3RFZ7 21-206): as the sequence (A3RFZ7 21-206) above
Description: as §1

[22] = molecular target: T13, human FcγRIIaR extracellular domain, His-tagged (human, UniProt P12318 34-217); assay: as above
T13 construct: also called human FcgRIIaR; FcγRIIa (type R); not shown: His-tag added to the C-terminus
T13 chain: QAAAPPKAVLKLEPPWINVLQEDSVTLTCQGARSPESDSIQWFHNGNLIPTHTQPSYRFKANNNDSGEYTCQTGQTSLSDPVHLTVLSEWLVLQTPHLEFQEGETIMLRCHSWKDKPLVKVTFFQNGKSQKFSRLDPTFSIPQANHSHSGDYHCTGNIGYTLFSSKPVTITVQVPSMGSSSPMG
Description: as §1

KD fold (SG1 = 1) [1]: 18.8 fold
KD fold (SG1 = 1) [2]: 2.8 fold
KD fold (SG1 = 1) [3]: 3.5 fold
KD fold (SG1 = 1) [4]: 2.1 fold
KD fold (SG1 = 1) [5]: 0.12 fold
KD fold (SG1 = 1) [6]: 0.3 fold
KD fold (SG1 = 1) [7]: 0.5 fold
KD fold (SG1 = 1) [8]: 5.2 fold
KD fold (SG1 = 1) [9]: 0.09 fold
Kd [10]: 170 nM
Kd [11]: 1800 nM
Kd [12]: 4.8 µM
Kd [13]: 850 nM
Kd [14]: 3.1 µM
Kd [15]: 2200 nM
Kd [16]: 2100 nM
Kd [17]: 880 nM
Kd [18]: 8.8 µM
B1: M103205H795-MY146/M103202L889-SK1 (antibody, human IgG1, kappa, name in EU numbering)
heavy: QVTLKESGPVLVKPTETLTLTCTVSGIDLSHDDISWVRQAPGKGLEWVGIISYAGSTYYASWAKGRLTISKDTSKNQVVLTMTNMDPVDTATYYCARGVPAYSHGGDLWGQGTLVTVSSASTKGPSVFPLAPSSKSTSGGTAALGCLVKDYFPEPVTVSWNSGALTSGVHTFPAVLQSSGLYSLSSVVTVPSSSLGTQTYICNVNHKPSNTKVDKKVEPKSCDKTHTCPPCPAPELLNGPSVFLFPPKPKDTLMISRTPEVTCVVVDVSEEDPEVKFNWYVDGVEVHNAKTKPREEQYNLTYRVVSVLTVLHQDWLNGKEYKCKVSNKALPAPIEKTISKAKGQPREPQVYTLPPSREEMTKNQVSLTCLVKGFYPSDIAVEWESNGQPENNYKTTPMVLDSDGSFFLYSKLTVDKSRWQQGNVFSCSVMHEALHNHYTQKSLSLSP
light: DIVMTQSPATLSLSPGERATLSCTSSQSVYHANWLSWFQQKPGQPPKLLIYWASTLAYGVPSRFSGSGSGTDFTLTISSLQPEDAATYYCAGGYGGGRYAFGQGTKVEIKRTVAAPSVFIFPPSDEQLKSGTASVVCLLNNFYPREAKVQWKVDNALQSGNSQESVTEQDSKDSTYSLSSTLTLSKADYEKHKVYACEVTHQGLSSPVTKSFNRGEC
notes: Fc variant of MS1032LO06-SG1; positions in EU numbering

KD fold (SG1 = 1) [19]: 3.8 fold
KD fold (SG1 = 1) [20]: 4 fold
KD fold (SG1 = 1) [21]: 0.05 fold
KD fold (SG1 = 1) [22]: 0.5 fold
B2: M103205H795-MY201/M103202L889-SK1 (antibody, human IgG1, kappa)
heavy: QVTLKESGPVLVKPTETLTLTCTVSGIDLSHDDISWVRQAPGKGLEWVGIISYAGSTYYASWAKGRLTISKDTSKNQVVLTMTNMDPVDTATYYCARGVPAYSHGGDLWGQGTLVTVSSASTKGPSVFPLAPSSKSTSGGTAALGCLVKDYFPEPVTVSWNSGALTSGVHTFPAVLQSSGLYSLSSVVTVPSSSLGTQTYICNVNHKPSNTKVDKKVEPKSCDKTHTCPPCPAPELLNGPSVFLFPPKPKDTLMISRTPEVTCVVVDVSDEDPEVKFNWYVDGVEVHNAKTKPREEQYNSTYRVVSVLTVLHQDWLNGKEYKCKVSNKALPKPIEKTISKAKGQPREPQVYTLPPSREEMTKNQVSLTCLVKGFYPSDIAVEWESNGQPENNYKTTPPVLDSDGSFFLYSKLTVDKSRWQQGNVFSCSVMHEALHNHYTQKSLSLSP
light: DIVMTQSPATLSLSPGERATLSCTSSQSVYHANWLSWFQQKPGQPPKLLIYWASTLAYGVPSRFSGSGSGTDFTLTISSLQPEDAATYYCAGGYGGGRYAFGQGTKVEIKRTVAAPSVFIFPPSDEQLKSGTASVVCLLNNFYPREAKVQWKVDNALQSGNSQESVTEQDSKDSTYSLSSTLTLSKADYEKHKVYACEVTHQGLSSPVTKSFNRGEC
notes: Fc variant of SG1 with G236N/H268D/A330K; also called MS1032LO06-MY201
